According to the supplement of paper PMC9112550, “Optimization of the antimicrobial peptide Bac7 by deep mutational scanning” (BMC Biology, 2022):

system: Escherichia coli TOP10; test: shrunken log2 fold change of peptide-encoding DNA abundance (4.5 h post-induction vs induction); higher = less antimicrobial activity (less host growth inhibition); details: time post-induction: 4.5 h; library: site-saturation at positions 5, 18, 19, 20
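Note: peptides expressed intracellularly from a pBAD plasmid library in pooled LB shake-flask culture, induced with 0.3% L-arabinose, DNA abundance read by NGS, three biological replicates, DESeq2 with apeglm shrinkage.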

Sequence | shrunken log2 fold change
RRIRPRPPRLPRPRPRPRQSPRP | 0.0298
RRIRPRPPRLPRPRPRPRQTPRP | 0.338
RRIRPRPPRLPRPRPRPRWLPRP | 0.299
RRIRPRPPRLPRPRPRPRWVPRP | 0.164
RRIRPRPPRLPRPRPRPRYHPRP | -0.224
RRIRPRPPRLPRPRPRPRYQPRP | 0.0923
RRIRPRPPRLPRPRPRPSAEPRP | 0.257
RRIRPRPPRLPRPRPRPSAPPRP | 0.017
RRIRPRPPRLPRPRPRPSAWPRP | 0.368
RRIRPRPPRLPRPRPRPSDIPRP | -0.417
RRIRPRPPRLPRPRPRPSDRPRP | -0.00705
RRIRPRPPRLPRPRPRPSEGPRP | -0.148
RRIRPRPPRLPRPRPRPSFKPRP | -0.123
RRIRPRPPRLPRPRPRPSGYPRP | -0.204
RRIRPRPPRLPRPRPRPSIEPRP | -0.0734
RRIRPRPPRLPRPRPRPSINPRP | -0.756
RRIRPRPPRLPRPRPRPSKQPRP | -0.116
RRIRPRPPRLPRPRPRPSLAPRP | 0.185
RRIRPRPPRLPRPRPRPSLIPRP | -0.181
RRIRPRPPRLPRPRPRPSPPPRP | 0.0408
RRIRPRPPRLPRPRPRPSPQPRP | 0.2
RRIRPRPPRLPRPRPRPSPWPRP | 0.0349
RRIRPRPPRLPRPRPRPSQLPRP | -0.0897
RRIRPRPPRLPRPRPRPSQPPRP | 0.122
RRIRPRPPRLPRPRPRPSQYPRP | -0.415

Sequence | shrunken log2 fold change
RRIRPRPPRLPRPRPRPSSDPRP | -0.317
RRIRPRPPRLPRPRPRPSVDPRP | -0.187
RRIRPRPPRLPRPRPRPSVMPRP | -0.123
RRIRPRPPRLPRPRPRPSVRPRP | 0.129
RRIRPRPPRLPRPRPRPSYQPRP | -0.493
RRIRPRPPRLPRPRPRPSYRPRP | -0.342
RRIRPRPPRLPRPRPRPSYSPRP | -0.149
RRIRPRPPRLPRPRPRPTCYPRP | -0.127
RRIRPRPPRLPRPRPRPTDTPRP | -0.00249
RRIRPRPPRLPRPRPRPTEMPRP | 0.218
RRIRPRPPRLPRPRPRPTEPPRP | 0.179
RRIRPRPPRLPRPRPRPTEQPRP | 0.307
RRIRPRPPRLPRPRPRPTFKPRP | 0.0985
RRIRPRPPRLPRPRPRPTGDPRP | 0.649
RRIRPRPPRLPRPRPRPTGTPRP | 0.104
RRIRPRPPRLPRPRPRPTGWPRP | 0.519
RRIRPRPPRLPRPRPRPTLKPRP | 0.114
RRIRPRPPRLPRPRPRPTPMPRP | 0.208
RRIRPRPPRLPRPRPRPTQPPRP | 0.402
RRIRPRPPRLPRPRPRPTQYPRP | 0.287
RRIRPRPPRLPRPRPRPTVFPRP | 0.0272
RRIRPRPPRLPRPRPRPTVMPRP | 0.0636
RRIRPRPPRLPRPRPRPTWSPRP | 0.324
RRIRPRPPRLPRPRPRPTYKPRP | -0.455
RRIRPRPPRLPRPRPRPTYYPRP | -0.636

Sequence | shrunken log2 fold change
RRIRPRPPRLPRPRPRPVAIPRP | -0.0776
RRIRPRPPRLPRPRPRPVAPPRP | 0.411
RRIRPRPPRLPRPRPRPVAQPRP | 0.123
RRIRPRPPRLPRPRPRPVCDPRP | 0.333
RRIRPRPPRLPRPRPRPVCFPRP | -0.027
RRIRPRPPRLPRPRPRPVCHPRP | -0.0724
RRIRPRPPRLPRPRPRPVDFPRP | 0.0795
RRIRPRPPRLPRPRPRPVFFPRP | 0.213
RRIRPRPPRLPRPRPRPVGFPRP | 0.37
RRIRPRPPRLPRPRPRPVGTPRP | 0.1
RRIRPRPPRLPRPRPRPVHIPRP | -0.208
RRIRPRPPRLPRPRPRPVHQPRP | -0.00254
RRIRPRPPRLPRPRPRPVIEPRP | -0.0347
RRIRPRPPRLPRPRPRPVIQPRP | -0.203
RRIRPRPPRLPRPRPRPVITPRP | -0.123
RRIRPRPPRLPRPRPRPVKMPRP | 0.137
RRIRPRPPRLPRPRPRPVLEPRP | -0.147
RRIRPRPPRLPRPRPRPVLQPRP | 0.162
RRIRPRPPRLPRPRPRPVLWPRP | 0.374
RRIRPRPPRLPRPRPRPVMMPRP | 3.4
RRIRPRPPRLPRPRPRPVPFPRP | -0.303
RRIRPRPPRLPRPRPRPVPLPRP | 0.0768
RRIRPRPPRLPRPRPRPVQVPRP | -0.119
RRIRPRPPRLPRPRPRPVRCPRP | 0.545
RRIRPRPPRLPRPRPRPVSFPRP | 0.0766

Sequence | shrunken log2 fold change
RRIRPRPPRLPRPRPRPVTHPRP | -0.227
RRIRPRPPRLPRPRPRPVVNPRP | -0.229
RRIRPRPPRLPRPRPRPVVTPRP | -0.207
RRIRPRPPRLPRPRPRPVVWPRP | 0.535
RRIRPRPPRLPRPRPRPVYLPRP | -0.6
RRIRPRPPRLPRPRPRPVYTPRP | -0.234
RRIRPRPPRLPRPRPRPVYYPRP | -0.348
RRIRPRPPRLPRPRPRPWAWPRP | 0.0719
RRIRPRPPRLPRPRPRPWCMPRP | -0.355
RRIRPRPPRLPRPRPRPWDLPRP | -0.0362
RRIRPRPPRLPRPRPRPWDMPRP | -0.0229
RRIRPRPPRLPRPRPRPWEMPRP | -0.157
RRIRPRPPRLPRPRPRPWGCPRP | -0.0706
RRIRPRPPRLPRPRPRPWHGPRP | 0.0257
RRIRPRPPRLPRPRPRPWIHPRP | -0.44
RRIRPRPPRLPRPRPRPWKMPRP | 0.0124
RRIRPRPPRLPRPRPRPWMPPRP | -0.00504
RRIRPRPPRLPRPRPRPWNGPRP | 0.0165
RRIRPRPPRLPRPRPRPWNKPRP | 0.163
RRIRPRPPRLPRPRPRPWPVPRP | 0.317
RRIRPRPPRLPRPRPRPWQPPRP | -0.0506
RRIRPRPPRLPRPRPRPWRWPRP | 0.915
RRIRPRPPRLPRPRPRPWTCPRP | -0.0575
RRIRPRPPRLPRPRPRPWTNPRP | -0.0167
RRIRPRPPRLPRPRPRPWVPPRP | -0.228

Sequence | shrunken log2 fold change
RRIRPRPPRLPRPRPRPWVRPRP | 0.113
RRIRPRPPRLPRPRPRPWWHPRP | 0.0413
RRIRPRPPRLPRPRPRPWYDPRP | -0.00228
RRIRPRPPRLPRPRPRPWYEPRP | -0.441
RRIRPRPPRLPRPRPRPYAHPRP | -0.0338
RRIRPRPPRLPRPRPRPYAKPRP | 0.258
RRIRPRPPRLPRPRPRPYAYPRP | -0.192
RRIRPRPPRLPRPRPRPYDEPRP | -0.0606
RRIRPRPPRLPRPRPRPYESPRP | -0.186
RRIRPRPPRLPRPRPRPYGFPRP | -0.426
RRIRPRPPRLPRPRPRPYGNPRP | -0.79
RRIRPRPPRLPRPRPRPYGVPRP | -0.157
RRIRPRPPRLPRPRPRPYHCPRP | -0.0484
RRIRPRPPRLPRPRPRPYIPPRP | -0.719
RRIRPRPPRLPRPRPRPYIQPRP | -0.375
RRIRPRPPRLPRPRPRPYIYPRP | -0.518
RRIRPRPPRLPRPRPRPYMCPRP | -0.714
RRIRPRPPRLPRPRPRPYMSPRP | -0.636
RRIRPRPPRLPRPRPRPYNPPRP | -0.84
RRIRPRPPRLPRPRPRPYQEPRP | -0.418
RRIRPRPPRLPRPRPRPYQFPRP | -0.114
RRIRPRPPRLPRPRPRPYQWPRP | -0.124
RRIRPRPPRLPRPRPRPYRKPRP | 0.0208
RRIRPRPPRLPRPRPRPYRPPRP | -0.257
RRIRPRPPRLPRPRPRPYRRPRP | -0.198

Sequence | shrunken log2 fold change
RRIRPRPPRLPRPRPRPYSEPRP | 0.0371
RRIRPRPPRLPRPRPRPYTIPRP | 0.00679
RRIRPRPPRLPRPRPRPYVVPRP | -0.307
RRIRPRPPRLPRPRPRPYWKPRP | -0.189
RRIRPRPPRLPRPRPRPYWQPRP | 0.0184
RRIRPRPPRLPRPRPRPYYAPRP | -0.709
RRIRPRPPRLPRPRPRPYYCPRP | -0.718
RRIRPRPPRLPRPRPRPYYQPRP | -0.496
RRIRPRPPRLPRPRPRPYYRPRP | -0.178
RRIRQRPPRLPRPRPRPAARPRP | 0.246
RRIRQRPPRLPRPRPRPACAPRP | 0.587
RRIRQRPPRLPRPRPRPACFPRP | 0.315
RRIRQRPPRLPRPRPRPADRPRP | 0.0738
RRIRQRPPRLPRPRPRPADVPRP | 0.0705
RRIRQRPPRLPRPRPRPAEAPRP | 0.61
RRIRQRPPRLPRPRPRPAGFPRP | 0.266
RRIRQRPPRLPRPRPRPAGKPRP | 0.0246
RRIRQRPPRLPRPRPRPAGNPRP | -0.0449
RRIRQRPPRLPRPRPRPAGTPRP | 0.134
RRIRQRPPRLPRPRPRPAHKPRP | -0.0849
RRIRQRPPRLPRPRPRPAHNPRP | -0.0225
RRIRQRPPRLPRPRPRPAIKPRP | -0.316
RRIRQRPPRLPRPRPRPAINPRP | -0.171
RRIRQRPPRLPRPRPRPAKLPRP | 0.0771
RRIRQRPPRLPRPRPRPAKRPRP | 0.0228
